In the DeepSol protein solubility set:

assay: soluble on expression in E. coli; label from the status in PepcDB or PDB records

Row | Sequence | soluble on expression in E. coli
1 | MGHHHHHHSHMKQTAESIRDRFMKLGIDVPVEDIESRLDELIKKFKVPSNEAQRSVTNYFLKKYSIPKNEFYVRQAEPQLTKIVDIVENGQWANLKAKVIQLWENTHESISQVGLLGDETGIIKFTIWKNAELPLLEQGESYLLRSVVVGEYNDRFQVQVNKNSSIEKLSEPIEVGGGDFTPAAREAELRNIADLTGNQWATVRGKVIQLWENSHESIEQAGLIGDETGVIKFTNWASSELPDMEEGRSYLLKNVVVNEWNGKAQVQLNRSSSIEELDEDIEVRTSMSSYFGAMVDIQTGSGLIKRCPECKRALVKGACAEHGKVKGEYDLRIKAVLDSGTSTQDALINRELTEELSGISLDSAIAMAADALDPGVVLDKLKHELVGRYYTITGHKLDRYILVESITPRTSLDRELLDQMLAEPIAQPEVE | soluble
2 | MGHHHHHHSHMKYGNPNYGGMKGILSNSWKRRYHSRRIQRDVIKKRALIGDDVGLTSYKHRHSGLVNVPEEPIEEEEEEEEEEEEEEEEDQDMDADDRVVVEYHEELPALKQPRERSASRRSSASSSDSDEMDYDLELKMISTPSPKKSMKMTMYADEVESQLKNIRNSMRADSVSSSNIKNRIGNKLPPEKFADVRHLLDEKRQHSRPRPPVSSTKSDIRQRLGKRPHSPEKAFSSNPVVRREPSSDVHSRLGVPRQDSKGLYADTREKKSGNLWTRLGSAPKTKEKNTKKVDHRAPGAEEDDSELQRAWGALIKEKEQSRQKKSRLDNLPSLQIEVSRESSSGSEAES | not soluble
3 | MGHHHHHHSHMLKKMGEAVARVARKVNETVESGSDTLDLAECKLVSFPIGIYKVLRNVSGQIHLITLANNELKSLTSKFMTTFSQLRDVPVEKLAAMPALRSINLRFNPLNAEVRVIAPPLIKFDMLMSPEGARAPLP | not soluble
4 | MGHHHHHHSHMMYAQSKGIYYVQLEDDIVAKPNYLSTMKNFALQQPSEDWMILEFSQLGFIGKMFKSLDLSLIVEFILMFYRDKPIDWLLDHILWVKVCNPEKDAKHCDRQKANLRIRFKPSLFQHVGTHSSLAGKIQKLKDKDFGKQALRKEHVNPPAEVSTSLKTYQHFTLEKAYLREDFFWAFTPAAGDFIRFRFFQPLRLERFFFRSGNIEHPEDKLFNTSVEVLPFDNPQSDKEALQEGRTATLRYPRSPDGYLQIGSFYKGVAEGEVDPAFGPLEALRLSIQTDSPVWVILSEIFLKKAD | soluble
5 | MGHHHHHHSHMNIPLEELQRNLQFHAFISYSGHDSFWVKNELLPNLEKEGMQICLHERNFVPGKSIVENIITCIEKSYKSIFVLSPNFVQSEWCHYELYFAHHNLFHEGSNSLILILLEPIPQYSIPSSYHKLKSLMARRTYLEWPKEKSKRGLFWANLRAAINIKLTEQAK | soluble
6 | MGHHHHHHSHMPKGIALALGLNAVDPKHYGGWAGKLNACEADAEDMAAIAAERGFAVTTLMTKAATRAKVIDAIGKAAKALGKGDIFMLSYSGHGGQVPDTSNDEPDGVDETWCLFDGELIDDELYALLGKFAAGVRVLVFSDSCHSGTVVKMAYYNGTTAARSAGPDEGEIRYRAMPQSVAMRTYRANREFYDTIQQKTKKVDLADVKASILLISGCQDNQLSQDGAFNGAFTGQLLRVWKNGLYKGSYRSFHKAIVRRMPPDQTPNFFTAGTPDPAFLKQRPFTV | soluble
7 | MGHHHHHHSHMPKSQVKRQEVISELLVTEAAHVRMLRVLHDLFFQPMAECLFFPLEELQNIFPSLDELIEVHSLFLDRLMKRRQESGYLIEEIGDVLLARFDGAEGSWFQKISSRFCSRQSFALEQLKAKQRKDPRFCAFVQEAESRPRCRRLQLKDMIPTEMQRLTKYPLLLQSIGQNTEEPTEREKVELAAECCREILHHVNQAVRDMEDL | not soluble
8 | MGHHHHHHSHMPLLVEGRRVRLPQSAGDLVRAHPPLEERARLLRGQSVQQVGPQGLLYVQQRELAVTSPKDGSISILGSDDATTCHIVVLRHTGNGATCLTHCDGTDTKAEVPLIMNSIKSFSDHAQCGRLEVHLVGGFSDDRQLSQKLTHQLLSEFDRQEDDIHLVTLCVTELNDREENENHFPVIYGIAVNIKTAEIYRASFQDRGPEEQLRAARTLAGGPMISIYDAETEQLRIGPYSWTPFPHVDFWLHQDDKQILENLSTSPLAEPPHFVEHIRSTLMFLKKHPSPAHTLFSGNKALLYKKNEDGLWEKISSPGS | not soluble
9 | MGHHHHHHSHMQHPQTHRQLKETLYETIIGYFDKGKMWEEAISLCKELAEQYEMEIFDYELLSQNLIQQAKFYESIMKILRPKPDYFAVGYYGQGFPSFLRNKVFIYRGKEYERREDFQMQLMTQFPNAEKMNTTSAPGDDVKNAPGQYIQCFTVQPVLDEHPRFKNKPVPDQIINFYKSNYVQRFHYSRPVRRGTVDPENEFASMWIERTSFVTAYKLPGILRWFEVVHMSQTTISPLENAIETMSTANEKILMMINQYQSDETLPINPLSMLLNGIVDPAVMGGFAKYEKAFFTEEYVRDHPEDQDKLTHLKDLIAWQIPFLGAGIKIHEKRVSDNLRPFHDRMEECFKNLKMKVEKEYGVREMPDFDD | soluble
10 | MGHHHHHHSHMRFFHWFSKWRKLHRDQEYEVTWYISWSPCTKCTRDMATFLAEDPKVTLTIFVARLYYFWDPDYQEALRSLCQKRDGPRATMKIMNYDEFQHCWSKFVYSQRELFEPWNNLPKYYILLHIMLGEILR | not soluble
11 | MGHHHHHHSHMRVFALQLESFKENLMQSLFNSIPKKSVIVLPEYVINPFFHHNMGLDVNEISDQSARAVEFLSQKCEELDLIVSAPVLLEEHSKIYKKIALISKESVKYYTQQRLIPYPHWDEESFFDNEKSAFKELLVFERDGLKFAPLFGFEAHFDEIWVQAKNQGVDVVLLSSVATFESNERWRLLCQMRAFCASCVVVRANRIGAYRQIIVEEDQKNEFLWKFYGDSFVALPNGAIEDSLEGKMGALNAQIDKNDIDEWAKLWHFRTIKEG | soluble
12 | MGHHHHHHSHMSENELSAEDTAFLEKAFELAQEALDEDEVPVGCVFVVNGTEIGRGRNRVNETGDPTRHAEMVAVTEMWKEHGTGCEDLLKKSTLYVSLEPCIMCSSAMYQLGIRKMVYGAENPRFGGVRSVGSAEKYRMEDNVQIVAGIWSERSVAMLKTFYEKLNPFAPPEKRKTKKPKLDEIK | not soluble
13 | MGHHHHHHSHMSHGHSHGGGGCRCAAEREEPPEQRGLAYGLYLRIDLERLQCLNESREGSGRGVFKPWEERTDRSKFVESDADEELLFNIPFTGNVKLKGIIIMGEDDDSHPSEMRLYKNIPQMSFDDTEREPDQTFSLNRDLTGELEYATKISRFSNVYHLSIHISKNFGADTTKVFYIGLRGEWTELRRHEVTICNYEASANPADHRVHQVTPQTHFIS | not soluble
14 | MGHHHHHHSHMSSMQRRAFVALGLMAMLAACSPAKKEDAAAGQTPIKLATDWRAQAELGGYYQALATGEYKKRGLDVTLIQGGPAVNVPQLLATGAVDVGVGSNSFIIMNLAKENAPVKAVAAFMQKDPQVLIAHPDQGINGIADMKGRPILLSDASVTAFWVWLKAKYGFTDDQVRKYNYSSAPFLADKRVVQQGYATSEPYLIEKEGKIKPAVFLLADSGYPAYASFALVPDSLIAKNPAAVQAFVEATAAGWTSYLYGDPKPGDAAILKDNPEMTQDVLDQAREKMRSYGIVSANGGRGDIGQMTDARWAEFFKVASEQGVYPADMDYKKAYTLQFLPKGP | not soluble
15 | MGHHHHHHSHMTDPSKLAVAVVCSSNMNRSMEAHNFLAKKGFNVRSYGTGERVKLPGMAFDKPNVYEFGTKYEDIYRDLESKDKEFYTQNGLLHMLDRNRRIKKCPERFQDTKEQFDIIVTVEERVYDLVVMHMESMESVDNRPVHVLNVDVVDNAEDALMGAFVITDMINMMAKSTDLDNDIDELIQEFEERRKRVILHSVLFY | soluble
16 | MGHHHHHHSHMVKDIIIASFYKFIPLNDFESLREPILTKMHEIGIKGTIILAHEGVNGGFAGNREQMNVFYDYLRSDSRFADLHFKETYDNKNPFDKAKVKLRKEIVTMGVQKVDPSYNAGTYLSPEEWHQFIQDPNVILLDTRNDYEYELGTFKNAINPDIENFREFPDYVQRNLIDKKDKKIAMFCTGGIRCEKTTAYMKELGFEHVYQLHDGILNYLESIPESESLWEGKCFVFDDRVAVDQKLDRVYPQLPQDYKYEREQK | soluble
17 | MGHHHHHHSHMYSEIQRERADIGGLMARPEYREWNPELIKPKKLLNPVKASRSHQELHRELLMNHRRGLGVDSKPELQRVLEHRRRNQLIKKKKEELEAKRLQCPFEQELLRRQQRLNQLEKPPEKEEDHAPEFIKVRENLRRIATLTSEEREL | not soluble
